B1: ZBED3 (parent)
chain: GPGFHAGTSALWRHLRSAHRRELE
B2: TRAF3IP2 (parent)
chain: KEHVPTWLQNTHVYSWPKNKKNIL

Variants of: B1
Test: protein stability index of a GFP-peptide fusion (GPS, HEK-293T) (PSI 1-6); higher = more stable
Settings: c terminus: a fixed tail appended
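Also: lentivirally expressed fusions sorted by FACS into six bins by GFP to DsRed ratio, PSI derived from sequencing read proportions per bin multiplied by bin number.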

Protein stability index, by site and new letter:
R20: E 2.08; G 2.23; D 2.01; M 2.17; T 1.92; K 2.54; C 2.27; P 2.54; W 2.83; Q 2.31; Y 1.62; L 1.59; F 2.36; I 1.74; V 2.06; N 1.4; H 1.37; S 1.86
E24: A 2.02; F 2.32; P 1.93; L 2; N 1.91; K 3.2; V 2.11; M 2.78; Q 2.51; I 2.65; G 1.76; H 1.85; W 1.84; S 1.97; T 2.35; C 1.65; Y 2.42; D 1.94; R 2.96
E22: A 2.76; R 2.38; V 2.44; M 2.38; W 2.25; Y 1.47; I 1.95; D 2.06; K 1.97; H 3.09; T 2.23; N 1.95; P 1.77; Q 1.72; L 2.4; S 2.17; C 2.08; F 2.43
R21: Y 2.14; N 1.77; C 4.08; A 1.7; H 1.73; V 1.53; M 1.9; I 1.97; L 1.77; G 1.75; P 1.95; T 2.49; F 1.02; K 2.51; W 2.07; Q 2.52; D 2.35; S 1.84; E 2.33
L23: P 1.98; N 2.03; V 1.92; S 2.36; D 1.95; E 2.07; Y 2.42; R 2.91; M 2.32; Q 2.13; G 2.32; F 2.11; W 1.88; I 2.19; A 2.83; H 2.37; T 1.97; K 2.79; C 2.14

Variants of: B2
Test: as above
Settings: c terminus: a fixed tail appended

Protein stability index of substitutions, site by site:
T11: K 2.57; A 2.67; W 2.3; N 3.08; S 2.88; I 2.55; R 2.54; P 2.67; D 2.52; F 2.53; Q 3.04; M 2.91; H 2.38; V 2.52; C 2.28; L 2.44; Y 2.36; E 2.83; G 2.64
T6: R 2.23; I 2.21; E 2.59; Q 2.51; W 1.53; C 1.81; F 1.93; M 2.22; V 2.17; A 2.49; Y 2.32; N 3.38; G 2.81; S 2.88; K 2.73; L 2.58; D 2.71; H 2.29; P 3.07
E2: S 2.53; N 2.14; R 3.4; I 1.58; G 1.93; F 1.7; P 2.25; T 2.33; D 2.47; A 1.94; H 2.08; V 2.15; K 2.13; M 2.5; W 1.57; C 1.54; Y 2.07; Q 2.15; L 1.67
K1: H 2.58; M 2.33; T 2.71; S 2.76; E 3.06; R 2.42; V 2.78; G 3.22; Y 1.93; Q 2.67; A 3.11; I 1.94; P 1.97; W 1.98; F 1.69; C 2.26; D 2.93; N 3.12; L 2.56
N10: Y 2.6; G 2.07; R 2.09; Q 2.32; C 2.07; H 2.48; I 1.79; T 2.85; V 2.85; P 2.64; F 2.09; K 2.04; D 3.02; L 2.03; E 2.66; M 2.25; A 2.34; S 2.66; W 1.64
H3: W 2.02; C 2.42; T 2.72; V 2.69; M 2.46; F 2.16; N 3.17; E 2.51; A 2.54; P 3.67; S 2.58; Q 2.62; I 2.53; Y 2.03; G 3.19; K 2.83; D 2.85; R 2.21; L 2.6
L8: G 3.21; E 3.88; Q 3.08; F 2.2; K 2.98; A 3.33; C 3.02; T 3.45; W 2.63; D 3.17; H 2.76; Y 2.73; V 2.04; I 2.54; M 3.34; R 2.98; S 3.01; P 3.18; N 3.2
Q9: A 2.18; R 1.97; L 2.29; T 2.8; M 2.53; E 2.68; H 2.54; I 2.55; V 2.65; P 2.81; N 3.18; F 2.38; S 2.62; C 2.25; D 2.53; G 2.66; Y 2.39; K 1.87
H12: E 3.38; Y 2.6; M 2.42; I 2.17; Q 2.55; F 2.13; R 3.02; D 2.75; T 2.82; L 1.79; S 3.17; N 2.62; P 2.94; K 2.51; C 2.46; V 2.05; G 2.8; W 1.82; A 2.86
V4: A 2.39; T 3.87; G 2.81; C 1.87; M 2.35; H 2.25; S 2.77; K 2.43; Q 3.54; L 3.21; W 1.93; N 3.44; Y 2.27; R 2.69; I 1.74; D 3.29; E 3.23; P 2.85; F 2.07
W7: L 3.2; T 3.84; H 3.21; G 3.99; I 2.61; S 3.31; K 3.34; Q 3.74; F 2.82; D 3.07; Y 2.88; A 3.39; V 3.82; E 3.97; C 3.75; P 3.21; N 3.63; M 3.61; R 2.85
V13: R 3; S 2.75; L 2.44; D 3.88; H 3.78; N 2.11; A 2.5; C 2.49; P 3.07; E 2.52; K 3.2; M 2.88; F 2.65; Q 2.31; I 2.51
P5: K 1.9; E 2.58; C 1.96; A 2.66; Q 1.45; L 1.73; M 2.27; R 1.95; V 2.24; I 1; H 2.06; D 3.08; N 2.26; G 2.38; Y 1.94; T 2.14; W 2.76; S 2.47

— the supplement of paper PMC10567573
